Test results: paper doi:10.1101/2020.12.09.417477 (bioRxiv, 2020)
One block for each binder: values may come before it.

Key:
Test in all cases: pull-down
His-Prs-K182A = His-Prs-K182A (E. coli, UniProt P0A717 1-315, K182A)
His-PrsK194A = His-PrsK194A (E. coli, UniProt P0A717 1-315, K194A)
His-Prs-K231A = His-Prs-K231A (E. coli, UniProt P0A717 1-315, K231A)
His6-Prs = His6-Prs (E. coli, UniProt P0A717 1-315)

binding result (His-Prs-K182A): binds
binding result (His-PrsK194A): binds
binding result (His-Prs-K231A): binds
binding result (His6-Prs): binds
B1: CobB (enzyme, E. coli, UniProt P75960 1-279, looked up)
chain: MLSRRGHRLSRFRKNKRRLRERLRQRIFFRDKVVPEAMEKPRVLVLTGAGISAESGIRTFRAADGLWEEHRVEDVATPEGFDRDPELVQAFYNARRRQLQQPEIQPNAAHLALAKLQDALGDRFLLVTQNIDNLHERAGNTNVIHMHGELLKVRCSQSGQVLDWTGDVTPEDKCHCCQFPAPLRPHVVWFGEMPLGMDEIYMALSMADIFIAIGTSGHVYPAAGFVHEAKLHGAHTVELNLEPSQVGNEFAEKYYGPASQVVPEFVEKLLKGLKAGSIA

binding result (His6-Prs): binds
B2: acetylated CobB (enzyme, E. coli, UniProt P75960 1-279, looked up)
chain: B1 chain
modifications: acetyl-lysines (acetylated in vitro with acetyl phosphate); positions are in Supplementary Table 2
